Measured values: patent US20210355227A1 (Regeneron, published 2021)
Residue numbers refer to the chain shown, from its start.

Key:
[1] = target: T1, macaca fascicularis GLP1R-MMH (macaca fascicularis); experiment: SPR Biacore 4000, mAb captured by anti-human Fc, 37 C
T1 construct: also called mfGLP1R-MMH; monomeric cynomolgus GLP1R
T1 chain: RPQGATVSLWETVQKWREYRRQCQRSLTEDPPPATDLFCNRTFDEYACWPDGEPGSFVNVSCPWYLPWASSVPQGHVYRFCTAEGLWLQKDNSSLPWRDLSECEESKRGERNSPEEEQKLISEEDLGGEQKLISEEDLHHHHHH
Experimental: (§1) The equilibrium dissociation constant (KD) for GLP1R binding to selected GLP1R monoclonal antibodies (mAbs) was determined using a real-time surface plasmon resonance biosensor using a Biacore 4000 instrument. All binding studies were performed in 10 mM HEPES, 150 mM NaCl, 3 mM EDTA, and 0.05% v/v Surfactant Tween-20, pH 7.4 (HBS-ET) running buffer at 25° C. and 37° C. The Biacore CM5 sensor chip surface was first derivatized by amine coupling with human Fc specific mouse mAb to capture different GLP1R mAbs. […] At the end of each cycle, the GLP1R mAb capture surface was regenerated using a 12 sec injection of 20 mM phosphoric acid.
(§2) The association rate (kₐ) and dissociation rate (kd) were determined by fitting the real-time binding sensorgrams to a 1:1 binding model with mass transport limitation using Scrubber 2.0 c curve-fitting software.

[2] = target: full-length human GLP1R on HEK293/CRE-luc/GLP1R cells (human, UniProt P43220 24-463); experiment: cell-based or functional assay
[3] = target: T1, macaca fascicularis GLP1R-MMH; experiment: SPR Biacore 4000, mAb captured by anti-human Fc, 25 C
Experimental: as §1, §2

[4] = target: T2, N-terminal region of human GLP1R-MMH (human); experiment: as above
T2 construct: also called hGLP1R-MMH
T2 chain: T1 chain with N112S
Experimental: as §1, §2

[5] = target: T3, human GLP1R expressed with mouse IgG2a Fc (human); experiment: SPR Biacore 4000, mAb captured by anti-human Fc, 37 C
T3 construct: It is probably the N-terminal region, as for hGLP1R-MMH, but the sentence is ambiguous; also called hGLP1R-mFc
T3 chain: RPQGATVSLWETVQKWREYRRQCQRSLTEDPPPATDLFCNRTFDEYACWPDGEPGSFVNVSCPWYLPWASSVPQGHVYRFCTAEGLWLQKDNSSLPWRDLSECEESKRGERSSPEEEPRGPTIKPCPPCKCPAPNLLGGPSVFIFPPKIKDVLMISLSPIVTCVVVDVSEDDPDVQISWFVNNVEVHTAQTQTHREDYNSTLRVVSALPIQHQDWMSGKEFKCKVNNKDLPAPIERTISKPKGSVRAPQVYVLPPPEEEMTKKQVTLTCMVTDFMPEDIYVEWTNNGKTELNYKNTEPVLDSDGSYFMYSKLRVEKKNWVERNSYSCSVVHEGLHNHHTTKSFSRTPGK
Experimental: as §1
(§3) The association rate (kₐ) and dissociation rate (kd) were determined by fitting the real-time binding sensorgrams to a 1:1 binding model with mass transport limitation using Scrubber 2.0 c curve-fitting software. Binding dissociation equilibrium constant (KD) and dissociative half-life (t½) were calculated from the kinetic rates as:

[6] = target: T4, in-line fusion protein of human desA-GLP1 and GLP1R-MMH (human); experiment: SPR Biacore 4000, mAb captured by anti-human Fc, 25 C
T4 construct: also called hdesA-GLP1_GLP1R-MMH
T4 chain: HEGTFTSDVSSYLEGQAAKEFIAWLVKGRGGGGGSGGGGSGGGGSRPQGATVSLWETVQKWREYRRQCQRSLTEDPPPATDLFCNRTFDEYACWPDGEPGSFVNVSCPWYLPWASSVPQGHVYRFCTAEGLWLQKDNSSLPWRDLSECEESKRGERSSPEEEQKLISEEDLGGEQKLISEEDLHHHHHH
Experimental: as §1, §3

[7] = target: T5, mouse GLP1R-MMH (mouse); experiment: SPR Biacore 4000, mAb captured by anti-human Fc, 37 C
T5 construct: It was injected at 100 nM only; also called mGLP1R-MMH; monomeric mouse GLP1R
T5 chain: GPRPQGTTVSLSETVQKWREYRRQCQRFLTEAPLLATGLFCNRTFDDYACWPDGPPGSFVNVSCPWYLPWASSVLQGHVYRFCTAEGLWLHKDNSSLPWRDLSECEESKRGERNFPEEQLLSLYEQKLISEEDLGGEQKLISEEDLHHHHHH
Experimental: as §1, §3

[8] = target: T2, N-terminal region of human GLP1R-MMH; experiment: as above
Experimental: as §1, §2

[9] = target: T4, in-line fusion protein of human …; experiment: as above
Experimental: as §1, §2

[10] = target: T3, human GLP1R expressed with mouse IgG2a …; experiment: SPR Biacore 4000, mAb captured by anti-human Fc, 25 C
Experimental: as §1, §3

[11] = target: T5, mouse GLP1R-MMH; experiment: as above
Experimental: as §1, §3

B1: mAb37645 (antibody, human IgG4 S228P, kappa, V domains shown)
VH: QVRLQQWGAGLLKPSETLSLTCAVYGGSFSGYFWSWIRQPPGKGLEWIGEINHGGNTNSNPSLKSRVTISVDTSKNQFSLKLSAVIAADTAVYYCARGQYRSGGGYWYFDLWGRGTLVTVSS
VL: EIVLTQSPGTLSLSPGERATLSCRASQSISSVHLAWYQQKPGQAPRLLIYGASSRATGIPDRFSGSGSETDFTLTVSRLEPDDFTMYYCQQYGSSPWTFGQGTKVEIKR
notes: In SPR the mAbs were captured by a human-Fc-specific antibody
[1]
  100 nM mfGLP1R-MMH Bound (RU): 42 RU
  Kd: 55.2 nM
  koff: 0.00384 s⁻¹
  kon: 69500 M⁻¹ s⁻¹
  t½: 3 min
[2]
  % Inhibition of human GLP1R activation by 40 pM GLP1 (CRE-luciferase reporter): 73%
  IC50 [M] of inhibition of human GLP1R activation by 40 pM GLP1 (CRE-luciferase reporter): 1.23e-09 M
[3]
  100 nM mfGLP1R-MMH Bound (RU): 35 RU
  Kd: 19.6 nM
  koff: 0.000826 s⁻¹
  kon: 42200 M⁻¹ s⁻¹
  t½: 14 min
[4]
  100 nM hGLP1R-MMH Bound (RU): 60 RU
  Kd: 5.72 nM
  koff: 0.000866 s⁻¹
  kon: 152000 M⁻¹ s⁻¹
  t½: 13 min
[5]
  100 nM hGLP1R-mFc Bound (RU): 116 RU
  Kd: 2.59 nM
  koff: 0.00065 s⁻¹
  kon: 251000 M⁻¹ s⁻¹
  t½: 18 min
[6]
  100 nM hdesA-GLP1_GLP1R-MMH Bound (RU): 58 RU
  Kd: 4.32 nM
  koff: 0.00052 s⁻¹
  kon: 120000 M⁻¹ s⁻¹
  t½: 22 min
[7]
  100 nM mGLP1R-MMH Bound (RU): 42 RU
  Kd: 29.8 nM
  koff: 0.00249 s⁻¹
  kon: 83600 M⁻¹ s⁻¹
  t½: 4.6 min
[8]
  100 nM hGLP1R-MMH Bound (RU): 70 RU
  Kd: 18 nM
  koff: 0.00349 s⁻¹
  kon: 195000 M⁻¹ s⁻¹
  t½: 3.3 min
[9]
  100 nM hdesA-GLP1_GLP1R-MMH Bound (RU): 71 RU
  Kd: 16.5 nM
  koff: 0.00229 s⁻¹
  kon: 139000 M⁻¹ s⁻¹
  t½: 5 min
[10]
  100 nM hGLP1R-mFc Bound (RU): 91 RU
  Kd: 1.42 nM
  koff: 0.000183 s⁻¹
  kon: 128000 M⁻¹ s⁻¹
  t½: 63 min
[11]
  100 nM mGLP1R-MMH Bound (RU): 30 RU
  Kd: 10.8 nM
  koff: 0.000617 s⁻¹
  kon: 56900 M⁻¹ s⁻¹
  t½: 19 min
